The assay concerns the target CCR5 on human monocytes (human) (UniProt P51681). The experiment in a line: cell-based or functional assay.

The substance “human CCL4 (MIP-1β) (from UniProt P13236 24-92) (ligand)” showed a chemotactic index of human monocytes, without RAP-103 (times over control) of 2.

The record behind these values is patent publication US20180360907A1.
